Earlier results in paper PMC3403913.
pKd: −log10 of the molar value.

Molecular target: factor Va (Homo sapiens) (UniProt P12259)
UniProt P12259, sequence (P12259 29-737, chain 1 of 2): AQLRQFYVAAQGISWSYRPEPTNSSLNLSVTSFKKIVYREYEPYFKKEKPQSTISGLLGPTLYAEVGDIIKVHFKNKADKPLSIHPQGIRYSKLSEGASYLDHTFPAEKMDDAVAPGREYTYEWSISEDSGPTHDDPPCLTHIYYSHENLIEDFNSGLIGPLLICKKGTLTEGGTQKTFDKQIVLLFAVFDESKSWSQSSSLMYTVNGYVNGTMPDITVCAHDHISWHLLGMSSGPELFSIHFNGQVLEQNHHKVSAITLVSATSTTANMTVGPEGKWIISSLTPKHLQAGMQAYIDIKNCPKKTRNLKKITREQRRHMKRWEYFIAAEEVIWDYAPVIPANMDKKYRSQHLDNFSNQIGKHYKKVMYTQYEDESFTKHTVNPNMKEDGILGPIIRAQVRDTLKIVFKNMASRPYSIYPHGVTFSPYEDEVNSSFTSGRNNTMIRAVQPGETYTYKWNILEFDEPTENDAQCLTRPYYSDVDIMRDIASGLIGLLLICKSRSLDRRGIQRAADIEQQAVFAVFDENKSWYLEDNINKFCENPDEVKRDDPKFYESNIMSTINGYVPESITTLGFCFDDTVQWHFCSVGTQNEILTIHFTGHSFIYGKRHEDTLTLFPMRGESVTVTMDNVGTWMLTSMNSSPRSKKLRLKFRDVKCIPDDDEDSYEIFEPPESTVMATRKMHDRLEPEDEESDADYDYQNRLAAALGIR
UniProt P12259, sequence (P12259 1574-2224, chain 2 of 2): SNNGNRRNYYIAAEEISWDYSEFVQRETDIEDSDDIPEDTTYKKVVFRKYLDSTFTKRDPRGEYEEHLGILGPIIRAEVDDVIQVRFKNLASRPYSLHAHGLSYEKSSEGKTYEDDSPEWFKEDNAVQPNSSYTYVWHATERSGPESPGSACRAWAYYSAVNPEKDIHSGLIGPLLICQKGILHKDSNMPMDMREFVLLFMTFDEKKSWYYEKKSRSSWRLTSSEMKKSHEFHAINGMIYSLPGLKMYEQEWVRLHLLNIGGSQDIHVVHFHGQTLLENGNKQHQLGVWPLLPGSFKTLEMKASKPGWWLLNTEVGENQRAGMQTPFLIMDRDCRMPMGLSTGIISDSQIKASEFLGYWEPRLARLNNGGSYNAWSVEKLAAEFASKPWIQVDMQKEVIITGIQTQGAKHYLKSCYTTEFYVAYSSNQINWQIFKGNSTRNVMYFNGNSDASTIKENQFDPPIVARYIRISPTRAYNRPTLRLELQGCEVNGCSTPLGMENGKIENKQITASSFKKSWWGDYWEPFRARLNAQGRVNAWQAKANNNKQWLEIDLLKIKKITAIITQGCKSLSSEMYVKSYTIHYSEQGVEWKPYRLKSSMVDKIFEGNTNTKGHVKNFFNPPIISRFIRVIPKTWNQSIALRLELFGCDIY

For factor Xa (from UniProt P00742), the pKd is given as 9.30.
